The results in this text go back to patent US20220380446A1 (ABL BIO, published 2022).

Test [1] concerns the target human α-synuclein oligomers (Dopamine HCL Stabilized Human Recombinant Alpha Synuclein Oligomers, StressMarq … (human, UniProt P37840 1-140)). In words: sandwich ELISA, antibody coated, oligomeric α-syn added, 7B7-biotin detection. As to the method:
In this sandwich ELISA, test antibodies were diluted with PBS by five-fold serial dilution from 80 nM to 0.005 nM. The serially diluted antibodies were added to a 96-well plate at 100 μL/well for coating. The plate was sealed and incubated at 4° C. for 16 hours. After washing with PBS-T five times, the plate was blocked with 5% BSA in PBS 200 μL/well at 37° C. for 2 hours. After washing with PBS-T five times, oligomeric α-syn (2 μg/mL, 100 μL/well in 2% BSA in PBS) was added and incubated at 37° C. for 2 hours. After washing with PBS-T five times, 7B7-biotin antibody (1 μg/mL, 100 μL/well, in 2% BSA in PBS) were added and incubated at 37° C. for 2 hours. After washing with PBS-T five times, the plate was incubated with Streptavidin-HRP in 2% BSA in PBS (1:5000, 1 mg/mL stock, 20 ng/well, 100 μL/well) at 37° C. for 1 hour. After washing with PBS-T five times, TMB (100 μL/well) was added and incubated at RT for 5 minutes. The reaction was stopped by the addition of 0.5 N H₂SO₄ (50 μL/well).

Test [2] has as its target human α-synuclein pre-formed fibrils (Human Alpha Synuclein Pre-formed Fibrils Type II, StressMarq SPR-317) (human, UniProt P37840 1-140). In words: SPR (Biacore), file name 'Main-ProA', α-syn PFF as analyte (sample PFF-4), single-cycle kinetics, 1:1 Binding fit, 25 °C; Run02. (In general: In SPR one partner is held on a chip, and binding of the other changes the refractive index at the surface.)

B1: hu1E4(V1_VL1) x Grabody B (bispecific antibody, human IgG1, kappa)
heavy 1: not shown
heavy 2: not shown
light: DIVMTQTPLSLSVTPGQPASISCRSSQSLVHSNGNTYLHWYLQKPGQSPQLLIYKVSNRFSGVPDRFSGSGSGTDFTLKISRVEAEDVGVYYCSQSTHVPRTFGQGTKLEIKRTVAAPSVFIFPPSDEQLKSGTASVVCLLNNFYPREAKVQWKVDNALQSGNSQESVTEQDSKDSTYSLSSTLTLSKADYEKHKVYACEVTHQGLSSPVTKSFNRGEC
notes: Anti-α-syn/IGF1R bispecific; hole heavy chain (M428L) carries the anti-IGF1R scFv Grabody B at its C-terminus through a (G4S)3 linker; knob heavy chain (M428L) without scFv; also called hu1E4(V1 VL1) × Grabody B; 1E4(Ver.1_VL1) × Grabody B
One may read the EC50 as the concentration needed to bring the measured effect to its halfway point. The term koff denotes the rate constant with which the complex falls apart. High values mean a short-lived complex, low ones a long-lived complex. As usually defined, the kon is the rate constant with which the complex forms. With B1, the EC50 in test [1] turned out to be 3.82 nM. In test [2], this molecule registered a koff of 0.000219 s⁻¹ and a kon of 1.44e+07 M⁻¹ s⁻¹.
